# Laboratory results: the nanobody polyreactivity screen of Harvey et al. (2022)
# Experiment: yeast display, Sf9 membrane polyspecificity reagent, FACS + sequencing; frameworks hold sequencing errors
# Outline: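 Galactose-induced (36–48 hours) yeast carrying a synthetic nanobody display library were exposed to 10% biotinylated, detergent-solubilized Sf9 membrane reagent at 4 °C for 1 hour. FACS followed streptavidin microbead enrichment, using low and high (top ~1%) gates for expression (anti-HA) and reagent binding (streptavidin). Colony PCR, MiSeq 2 × 250 sequencing and CDR-length filtering followed. Labels for polyreactivity reflect the gate of origin.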
row,Sequence,polyreactivity (PSR sort gate)
1,QVQLVESGGGLVQAGGSLRLSCAASGRTFGRYAMGWSRQAPGKERELVAAIRYTGGSTYADSVKGRFTISRDNAKNTVYLQMNSLKPEDTAVYYCAVLFYNNFGYWGQGTQVTVSS,low polyreactivity
2,QVQLVESGGGLVQAGGSLRLSCAASGRTFGRYAMGWYRPAPGKERELVAAIRWTGGGTYYADSVKGRFTISRDNAKNTVYLQMNSLKPEDTAVYYCAADDYYYSVYRYEYWGEGTQVTVSS,high polyreactivity
3,QVQLVESGGGLVQAGGSLRLSCAASGRTFGRYAMGWYRQAPGKERELVAAINSGSASTYYADSVKGRFTISRDNAKNTVYLEMNSLKPEDPAVYYCAKRVQQSTWYGYGIGYEYWGQGTQVTVSS,high polyreactivity
4,QVQLVESGGGLVQAGGSLRLSCAASGRTFGRYAMGWYRQAPGKERELVAAISSSGGRTNYADSVKGRFTISRDNAKNTVYLQMNSLKPEDTAVYYCAAAGQRPYEKGDYWGQGTQVTVSS,low polyreactivity
5,QVQLVESGGGLVQAGGSLRLSCAASGRTFGRYAMGWYRQAPGKERELVAAISWRGSSTSYADSVKGRFTISRDNAKNTVYLQMNSLKPEDTSVYYCNAKRSGGYGGYDYWGQGTQVTVSS,high polyreactivity
6,QVQLVESGGGLVQAGGSLRLSCAASGRTFGRYAMGWYRQAPGKERELVAAITRGGGSTYYADSVKGRFTISRDNAKNTVYLQMNSLKPEDTAVYYCAARNFRSPYGYDYWGQGTQVTVSS,high polyreactivity
7,QVQLVESGGGLVQAGGSLRLSCAASGRTFGRYAMGWYRQAPGKERELVATISSRGGNTYYADSVKGRFTISRDNAKNTVFLQMNSLKPEDTAVYYCAADVYSSDYDYWGQGTQVNVSS,high polyreactivity
8,QVQLVESGGGLVQAGGSLRLSCAASGRTFGRYAMGWYRQAPGKERELVATISSRGGNTYYADSVKGRFTISRDNAKNTVYLQMNSLKPEDTAVYYCAAQTYKWYDWGQGTQVTVSS,high polyreactivity
9,QVQLVESGGGLVQAGGSLRLSCAASGRTFGRYAMGWYRQAPGKERELVATITRGDSTYYADSVKGRFTISRDNAKNKVYLQMNSLKPEDTAVYYCAADWHRWYLDYDYWGQGTQVTVSS,low polyreactivity
10,QVQLVESGGGLVQAGGSLRLSCAASGRTFGRYVMGWYRQAPGKERDLVAAITGVGSTKYADSVKGRFTISRDNAKNTVYLQMNSLKPEDTAVYYCAKRYLYDRRHAEYWAANDYWGQGTQVTVSS,low polyreactivity
11,QVQLVESGGGLVQAGGSLRLSCAASGRTFGSNAMGRYRQAPGKDRELVAAISVRGGRTYYADSVKGRFTISRDIAKNTGYLQMNSLKPEDTAVYYCNAVYRTYEYYWGQGTQVTVSS,high polyreactivity
12,QVQLVESGGGLVQAGGSLRLSCAASGRTFGSYAMGWYRQAPGKERELVAAIRYRGGSTYYADSVKGRFTISRDNAKNTVYLQMNSLKPEDTAVYYCAAKQGRYNIYSNYDYWGQGTQVTVSS,high polyreactivity
13,QVQLVESGGGLVQAGGSLRLSCAASGRTFGTNAMGRYRKAPGKERELVAAITWRGGSTSYADSEKGRFTISRDNAKNSVYFQMNSLKPEDPAVYYCAVRLRYPGNTFYYLGQGTQVTVSS,high polyreactivity
14,QVQLVESGGGLVQAGGSLRLSCAASGRTFGTNTKGWSRQAPGKERELVAAISSRGGTTYYADSVKGRFTISRDNAKNTVYLQMYSLKPEDTAVYYCNRARSSSRYDYWGQGTQVTVSS,low polyreactivity
15,QVQLVESGGGLVQAGGSLRLSCAASGRTFGTYAIGWYRQAPGKERELVAAITGSGDRTYYADSVKGRFTISRDNAKNTVYLQMNSLKPEDTAVYYCAAYSDRSYGFWGQGTQVTVSS,low polyreactivity
16,QVQLVESGGGLVQAGGSLRLSCAASGRTFGTYAMGWYRQAPGKERELVAAIRSNAGSTYYADSVKGRFTISRDNAKNTVYLQMNSLKPEDTAVYYCAKSYRSSRRYNYWGQGTQVTVSS,high polyreactivity
17,QVQLVESGGGLVQAGGSLRLSCAASGRTFGTYAMGWYRQAPGKERELVAAITGSGDRTYYADSVKGRFTISRDNAKNTVYLQMNSLKPEDTAVYYCAAYSDRSYGYWGQGTQVTVSS,low polyreactivity
18,QVQLVESGGGLVQAGGSLRLSCAASGRTFGTYAMGWYRQAPGKERELVASITSGDSTNYADSVKGRFTISRDYAKNTVYLQMNSLKPEDTAVYYCNARGDVIVTPPKFSFNYEYWGQGTQVTVSS,low polyreactivity
19,QVQLVESGGGLVQAGGSLRLSCAASGRTFGVYAMGWYRQAPGKERELVAAITWSGGSTYYADSVKGRFTISRDNAKNTVYLQMNSLKPEDTAVYYCAADNWYKKQKRPSAYDYWGQGTQVTVSS,high polyreactivity
20,QVQLVESGGGLVQAGGSLRLSCAASGRTFGVYAMGWYRQAPGKERELVARIRYSGGTTRYADSVKGRFTISRDNAKNTVYLQMNSLKPEDTAVYYCAATNWWGTEYDYWGQGTQVTVSS,high polyreactivity
21,QVQLVESGGGLVQAGGSLRLSCAASGRTFGVYAMGWYRQAPGKERELVATITSVDRTNYADSVKGRFTISRDNAKNTVYLQMNSLKPEDTAVYYCAAVGRWPRYYYWGQGTQVTVSS,high polyreactivity
22,QVQLVESGGGLVQAGGSLRLSCAASGRTFGVYAMGWYRQATGKERELVAGIRWRGGSTYYADSVKGRFTISRDNAKNTVYLQMNSLKPEDTAVYYCAAKVYYLYDSIWAWVIIRYDYWGQGTQVTVSS,low polyreactivity

row,Sequence,polyreactivity (PSR sort gate)
1,QVQLVESGGGLVQAGGSLRLSCAASGRTFGWYAMGWYRQAPGKERELVAAINNSGDITYYADSVKGRFTISRDNAKNTVYLQMNRLKPEDTAVYYCAKDNGRAYFGPSPYDYWGQGTQVTVSS,low polyreactivity
2,QVQLVESGGGLVQAGGSLRLSCAASGRTFGYNAMGWYRQAPGKERELVAAIRYSGGSTYYADSVKGRFTISRDNAKNTVYLQMNSLKPEDTAVYYCAAYCLFSSYGYDYWGQGTQVTVSS,high polyreactivity
3,QVQLVESGGGLVQAGGSLRLSCAASGRTFGYNAMGWYRQAPGKVRELVAAITSGGSTYYADSVKGRFTISRDNAKNTVYLQMNSLKPEDTAVYYCNARYPGFWSGWEEYWGQGTQVTVSS,high polyreactivity
4,QVQLVESGGGLVQAGGSLRLSCAASGRTFGYNAMGWYSQAPGKERELVAAISWSGGRTYYADSVKGRFTISRDNAKNTVYLQMNSLKPEDTAVYYCAALPSVTNRYYIYGYWGQGTQVTGSS,high polyreactivity
5,QVQLVESGGGLVQAGGSLRLSCAASGRTFGYYAMGWYRQAAGKDREFVAAITAGRGSTYYPDSVKGRFTISRDNAKNTVYLQMNSLKPEETAVYYCNAVPPGRTPVKGNFYYWGQGTQVTVSS,high polyreactivity
6,QVQLVESGGGLVQAGGSLRLSCAASGRTFGYYAMGWYRQAPGKERELVAAISRSGGSTYYADSVKGRFTISGDNAKNTVYLQMNSLKPEDTAVYYCAVKGYVKSDYWGQGTQVTVSS,high polyreactivity
7,QVQLVESGGGLVQAGGSLRLSCAASGRTFGYYAMGWYRQAPGKERELVAAISSAGSSTYYADSVKGRFTISRDNAKNTVYLQMNSLKPEDTAVYYCAASSRSFIRVYYWGQGTQVTVSS,high polyreactivity
8,QVQLVESGGGLVQAGGSLRLSCAASGRTFGYYAMGWYRQAPGKERELVAAISTSGGGTYYADSVKGRFTISRDNAKYTVYLQMNSLKPVDTAVYYCARDRNTRYKFDYWGQGTQVTLSS,low polyreactivity
9,QVQLVESGGGLVQAGGSLRLSCAASGRTFGYYAMGWYRQAPGKERELVAAISWRGTSTYYADSVKGRFTISRDNAKNTVYLQMNSLKPEDTAVYYCAVGRTVAHRFIAGDYWGQGTQVTVSS,high polyreactivity
10,QVQLVESGGGLVQAGGSLRLSCAASGRTFGYYAMGWYRQAPGKERELVAAISWSGGSTRYADSVKGRFTISRDNAKNTVYFQLNSLKPEDTAVYYCAADSWYSFAGVYRVYGEDYWGQGTQVTVSS,high polyreactivity
11,QVQLVESGGGLVQAGGSLRLSCAASGRTFGYYGMGWYRQAPGKERELVAAITGSGGSTYYADSVKGRFTISRDNAKNTVYLQMNSLKPEDTAVYYCAATYLSRWTLYDYWGQGTQVTVSS,high polyreactivity
12,QVQLVESGGGLVQAGGSLRLSCAASGRTFGYYRMGWYRQAPGKERELVAAITGSGGSTYYADSVKGRFTISRDNAKNTVYLQMNSLKAEDTAVYYCAATYLSRWTLYDYWGQGTQVTVSS,high polyreactivity
13,QVQLVESGGGLVQAGGSLRLSCAASGRTFHDNGMGGYRQAPGKERELVAAISWRGGSTNYADSVKGRFTISRDNAKNTVYLQMNSLKPEETAVYFCNRVPRKFGKLDYWGQGTQVTVSS,low polyreactivity
14,QVQLVESGGGLVQAGGSLRLSCAASGRTFHGYAMGWYRQAPGKERELVARINWSDGRTYYADSVKGRFTISRDNAKNTVFLQMNSLKPEDTAVYYCAADKTVSYAPAWYYYWGQGTQVTVSS,low polyreactivity
15,QVQLVESGGGLVQAGGSLRLSCAASGRTFHGYAMGWYRQAPGNEREFVAAISSDGDSTYYADSVKGRFTISRDNAKNTVYLQMNSLKPEDTAVYYCAAERGYHGGGSGLYDYWGQGTQVTVSS,low polyreactivity
16,QVQLVESGGGLVQAGGSLRLSCAASGRTFHINAMGWYRQAPGKERELVAGINSGGSTNYADSVKGRFTISRDNAKNTVYLQMNSLKPEDTAVYYCNAVVKLKYLYYYVEHYYWGQGTQVTVSS,low polyreactivity
17,QVQLVESGGGLVQAGGSLRLSCAASGRTFHKYAMGWLRQAPGKERELVAAITGSGVRTYYADSVKGRFTISRDNAKNTVYLQMNSLKPEDTAVYYCNADSYNRNGDYWGQGTQVTVSS,high polyreactivity
18,QVQLVESGGGLVQAGGSLRLSCAASGRTFHPYAMGWYRQAPGKERELVAVITTSGSSTYYADSVKGRFTISRDNAKNTVYLQMNSLKPEDTAVYYCAALYWRHQAARYYYWGQGTQVTVSS,high polyreactivity
19,QVQLVESGGGLVQAGGSLRLSCAASGRTFHQYAKGWYRQAPGKERELVAAISRSGGRTYYADSVKGRFTISRDNAKNTVYLQMNSLIPEDSAVYYCNRDIGGTSVLDDYWGQGTQVTVSS,low polyreactivity
20,QVQLVESGGGLVQAGGSLRLSCAASGRTFHRNAMGWYRQAPGKERELVAAITGDGRTNYADSVKGRFTITRDNAKNTVSLQMNSLKPEDTAVYYCFSYDYDYWGQGTQVTVSS,low polyreactivity
21,QVQLVESGGGLVQAGGSLRLSCAASGRTFHRYAMGWYRQAPGKERELVAAITYRGGRTYYADSVKGRFTISRDNANNTVYLQMNSLKPEDTAVYYCNTTQYSPIHDPGDYWGQGTQVTVSS,low polyreactivity
